Like-named read-outs stand apart in the source and are kept apart here. Values belong to the substance of their own block, whether it stands above or below them.
Columns and labels:
Assay in all cases: cell-based or functional assay
[1] = molecular target: CCR2 (the MCP1 receptor) on THP-1 human monocytic cells (human) (UniProt P41597)
[2] = molecular target: CCR2 (the MCP1 receptor) on THP-1 human monocytic cells (human) (UniProt P41597); remark: listed apart in the source
[3] = molecular target: CCR2 (the MCP1 receptor) on THP-1 human monocytic cells (human) (UniProt P41597); remark: listed apart in the source
[4] = molecular target: CCR2 (the MCP1 receptor) on THP-1 human monocytic cells (human) (UniProt P41597); remark: listed apart in the source

Sequence of UniProt P41597 (P41597 whole entry): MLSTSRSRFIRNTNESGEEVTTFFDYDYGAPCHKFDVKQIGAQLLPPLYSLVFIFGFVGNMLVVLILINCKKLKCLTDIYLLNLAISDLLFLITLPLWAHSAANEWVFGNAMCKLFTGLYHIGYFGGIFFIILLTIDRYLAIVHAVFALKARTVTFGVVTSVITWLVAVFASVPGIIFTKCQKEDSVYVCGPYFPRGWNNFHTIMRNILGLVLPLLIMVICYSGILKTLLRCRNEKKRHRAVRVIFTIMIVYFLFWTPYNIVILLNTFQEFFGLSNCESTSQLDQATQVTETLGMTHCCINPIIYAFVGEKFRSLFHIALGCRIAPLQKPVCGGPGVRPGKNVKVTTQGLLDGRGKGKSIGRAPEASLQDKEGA

- relative % of THP-1 cell migration, agonist assay, 0.01 nM [1]: 27.9%
- relative % of THP-1 cell migration, agonist assay, 0.03 nM [1]: 63.8%
- relative % of THP-1 cell migration, agonist assay, 0.1 nM [1]: 104%
- relative % of THP-1 cell migration, agonist assay, 0.3 nM [1]: 86.2%
- relative % of THP-1 cell migration, agonist assay, 1 nM [1]: 59.5%
- relative % of THP-1 cell migration, agonist assay, 3 nM [1]: 33.1%
- relative % of THP-1 cell migration, agonist assay, 10 nM [1]: 26.4%
- relative % of THP-1 cell migration, antagonist assay, rhMCP-1 0 nM, LPD1421 0.01 nM [2]: 11.8%
- relative % of THP-1 cell migration, antagonist assay, rhMCP-1 0 nM, LPD1421 0.1 nM [2]: 9.55%
- relative % of THP-1 cell migration, antagonist assay, rhMCP-1 0 nM, LPD1421 1 nM [2]: 12.6%
- relative % of THP-1 cell migration, antagonist assay, rhMCP-1 0.01 nM, LPD1421 0.01 nM [2]: 10.6%
- relative % of THP-1 cell migration, antagonist assay, rhMCP-1 0.01 nM, LPD1421 0.1 nM [2]: 9.42%
- relative % of THP-1 cell migration, antagonist assay, rhMCP-1 0.01 nM, LPD1421 1 nM [2]: 8.35%
- relative % of THP-1 cell migration, antagonist assay, rhMCP-1 0.03 nM, LPD1421 0.01 nM [2]: 12.7%
- relative % of THP-1 cell migration, antagonist assay, rhMCP-1 0.03 nM, LPD1421 0.1 nM [2]: 10.3%
- relative % of THP-1 cell migration, antagonist assay, rhMCP-1 0.03 nM, LPD1421 1 nM [2]: 10.7%
- relative % of THP-1 cell migration, antagonist assay, rhMCP-1 0.1 nM, LPD1421 0.01 nM [2]: 24.3%
- relative % of THP-1 cell migration, antagonist assay, rhMCP-1 0.1 nM, LPD1421 0.1 nM [2]: 12.1%
- relative % of THP-1 cell migration, antagonist assay, rhMCP-1 0.1 nM, LPD1421 1 nM [2]: 7.25%
- relative % of THP-1 cell migration, antagonist assay, rhMCP-1 0.3 nM, LPD1421 0.01 nM [2]: 41.7%
- relative % of THP-1 cell migration, antagonist assay, rhMCP-1 0.3 nM, LPD1421 0.1 nM [2]: 15.9%
- relative % of THP-1 cell migration, antagonist assay, rhMCP-1 0.3 nM, LPD1421 1 nM [2]: 13.5%
- relative % of THP-1 cell migration, antagonist assay, rhMCP-1 1 nM, LPD1421 0.01 nM [2]: 61.2%
- relative % of THP-1 cell migration, antagonist assay, rhMCP-1 1 nM, LPD1421 0.1 nM [2]: 33.7%
- relative % of THP-1 cell migration, antagonist assay, rhMCP-1 1 nM, LPD1421 1 nM [2]: 9.44%
- relative % of THP-1 cell migration, antagonist assay, rhMCP-1 3 nM, LPD1421 0.01 nM [2]: 44%
- relative % of THP-1 cell migration, antagonist assay, rhMCP-1 3 nM, LPD1421 0.1 nM [2]: 39.2%
- relative % of THP-1 cell migration, antagonist assay, rhMCP-1 3 nM, LPD1421 1 nM [2]: 9.57%
- relative % of THP-1 cell migration, antagonist assay, rhMCP-1 10 nM, LPD1421 0.01 nM [2]: 39.2%
- relative % of THP-1 cell migration, antagonist assay, rhMCP-1 10 nM, LPD1421 0.1 nM [2]: 37.9%
- relative % of THP-1 cell migration, antagonist assay, rhMCP-1 10 nM, LPD1421 1 nM [2]: 16.1%
- EC50, agonist THP-1 cell migration [3]: 0.03 nM
- IC50, antagonist assay of THP-1 cell migration toward rhMCP-1 [3]: 0.01 to 0.1 nM
- potency in agonist cell migration relative to rhMCP-1 [3]: 3 fold
Substance: LPD1421 (MCP1-Ig fusion: mature human MCP1, linker GGEPKSS of SEQ ID NO: 12, human IgG1 variant hinge-CH3 with D265A) (Fc fusion)

- relative % of THP-1 cell migration, agonist assay, 0.03 nM [4]: 28.6%
- relative % of THP-1 cell migration, agonist assay, 0.1 nM [4]: 52.2%
- relative % of THP-1 cell migration, agonist assay, 0.3 nM [4]: 76%
- relative % of THP-1 cell migration, agonist assay, 3 nM [4]: 78.1%
- relative % of THP-1 cell migration, agonist assay, 10 nM [4]: 47.5%
- relative % of THP-1 cell migration, agonist assay, 30 nM [4]: 25.3%
- relative % of THP-1 cell migration, agonist assay, 0.01 nM [1]: 29.2%
- relative % of THP-1 cell migration, agonist assay, 0.03 nM [1]: 28.7%
- relative % of THP-1 cell migration, agonist assay, 0.1 nM [1]: 59.4%
- relative % of THP-1 cell migration, agonist assay, 0.3 nM [1]: 87.3%
- relative % of THP-1 cell migration, agonist assay, 3 nM [1]: 78.4%
- relative % of THP-1 cell migration, agonist assay, 10 nM [1]: 48.4%
- relative % of THP-1 cell migration toward rhMCP-1 0.01 nM, medium only [2]: 16.2%
- relative % of THP-1 cell migration toward rhMCP-1 0.03 nM, medium only [2]: 24.2%
- relative % of THP-1 cell migration toward rhMCP-1 0.1 nM, medium only [2]: 34.8%
- relative % of THP-1 cell migration toward rhMCP-1 0.3 nM, medium only [2]: 60.7%
- relative % of THP-1 cell migration toward rhMCP-1 3 nM, medium only [2]: 82.1%
- relative % of THP-1 cell migration toward rhMCP-1 10 nM, medium only [2]: 59.8%
- EC50, agonist THP-1 cell migration [3]: 0.1 nM
- relative % of THP-1 cell migration toward rhMCP-1 0.01 nM, medium only [3]: 6.44%
- relative % of THP-1 cell migration toward rhMCP-1 0.03 nM, medium only [3]: 15%
- relative % of THP-1 cell migration toward rhMCP-1 0.1 nM, medium only [3]: 32%
- relative % of THP-1 cell migration toward rhMCP-1 0.3 nM, medium only [3]: 67.5%
- relative % of THP-1 cell migration toward rhMCP-1 1 nM, medium only [3]: 100%
- relative % of THP-1 cell migration toward rhMCP-1 3 nM, medium only [3]: 97%
- relative % of THP-1 cell migration toward rhMCP-1 10 nM, medium only [3]: 75.5%
- relative % of THP-1 cell migration, agonist assay, 0.03 nM [3]: 26.5%
- relative % of THP-1 cell migration, agonist assay, 0.1 nM [3]: 46.4%
- relative % of THP-1 cell migration, agonist assay, 0.3 nM [3]: 80.2%
- relative % of THP-1 cell migration, agonist assay, 1 nM [3]: 100%
- relative % of THP-1 cell migration, agonist assay, 3 nM [3]: 70.3%
- relative % of THP-1 cell migration, agonist assay, 10 nM [3]: 32.8%
- relative % of THP-1 cell migration, agonist assay, 30 nM [3]: 26.4%
Substance: recombinant human MCP-1 (rhMCP-1) (R & D Systems) (from UniProt P13500 24-99) (ligand)

- EC50, agonist THP-1 cell migration [3]: 0.03 to 0.3 nM
- relative % of THP-1 cell migration, agonist assay, 0.03 nM [3]: 17.7%
- relative % of THP-1 cell migration, agonist assay, 0.1 nM [3]: 34.3%
- relative % of THP-1 cell migration, agonist assay, 0.3 nM [3]: 35.5%
- relative % of THP-1 cell migration, agonist assay, 1 nM [3]: 36.5%
- relative % of THP-1 cell migration, agonist assay, 3 nM [3]: 26.7%
- relative % of THP-1 cell migration, agonist assay, 10 nM [3]: 17.5%
- relative % of THP-1 cell migration, agonist assay, 30 nM [3]: 20.1%
Substance: NGSD (human MCP-1 joined at its carboxy-terminus directly to wild-type human IgG1 Fc) (from UniProt P13500 24-99; P01857 99-330) (Fc fusion)

- relative % of THP-1 cell migration, agonist assay, 0.03 nM [4]: 22.8%
- relative % of THP-1 cell migration, agonist assay, 0.1 nM [4]: 34.5%
- relative % of THP-1 cell migration, agonist assay, 0.3 nM [4]: 41.9%
- relative % of THP-1 cell migration, agonist assay, 1 nM [4]: 58.9%
- relative % of THP-1 cell migration, agonist assay, 3 nM [4]: 53%
- relative % of THP-1 cell migration, agonist assay, 10 nM [4]: 34.3%
- relative % of THP-1 cell migration, agonist assay, 30 nM [4]: 23.1%
- EC50, agonist THP-1 cell migration [3]: 0.03 to 0.3 nM
Substance: GSD (human MCP-1, glycine-serine dipeptide, wild-type human IgG1 Fc) (from UniProt P13500 24-99; P01857 99-330) (Fc fusion)
